From patent CN101151278A (GENENTECH INC, dated 2008)
Numbering of substitutions follows the chain as printed. Names may count otherwise.

T1: CD20 on WIL2-S cells (human, UniProt P11836 1-297)
T1 construct: whole, on cells; also called CD20抗原; 人CD20
T1 sequence (looked up): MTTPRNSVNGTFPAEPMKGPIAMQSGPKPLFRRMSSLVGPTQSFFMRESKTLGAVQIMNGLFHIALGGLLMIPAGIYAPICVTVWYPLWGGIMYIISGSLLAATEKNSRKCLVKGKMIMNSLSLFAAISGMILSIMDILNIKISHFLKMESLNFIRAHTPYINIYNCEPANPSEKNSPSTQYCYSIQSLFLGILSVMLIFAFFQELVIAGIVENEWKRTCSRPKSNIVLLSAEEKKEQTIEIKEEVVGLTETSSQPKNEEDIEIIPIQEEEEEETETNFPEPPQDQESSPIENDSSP

B1: 2H7.v477 (antibody, human IgG1, kappa)
heavy: EVQLVESGGGLVQPGGSLRLSCAASGYTFTSYNMHWVRQAPGKGLEWVGAIYPGNGATSYNQKFKGRFTISVDKSKNTLYLQMNSLRAEDTAVYYCARVVYYSASYWYFDVWGQGTLVTVSSASTKGPSVFPLAPSSKSTSGGTAALGCLVKDYFPEPVTVSWNSGALTSGVHTFPAVLQSSGLYSLSSVVTVPSSSLGTQTYICNVNHKPSNTKVDKKVEPKSCDKTHTCPPCPAPELLGGPSVFLFPPKPKDTLMISRTPEVTCVVVDVSHEDPEVKFNWYVDGVEVHNAKTKPREEQYNATYRVVSVLTVLHQDWLNGKEYKCKVSNAALPAPIAATISKAKGQPREPQVYTLPPSREEMTKNQVSLTCLVKGFYPSDIAVEWESNGQPENNYKTTPPVLDSDGSFFLYSKLTVDKSRWQQGNVFSCSVMHEALHWHYTQKSLSLSPGK
light: DIQMTQSPSSLSASVGDRVTITCRASSSVSYLHWYQQKPGKAPKPLIYAPSNLASGVPSRFSGSGSGTDFTLTISSLQPEDFATYYCQQWAFNPPTFGQGTKVEIKRTVAAPSVFIFPPSDEQLKSGTASVVCLLNNFYPREAKVQWKVDNALQSGNSQESVTEQDSKDSTYSLSSTLTLSKADYEKHKVYACEVTHQGLSSPVTKSFNRGEC
notes: IgG1; 2H7.v138 with N434W
B2: 2H7.v138 (antibody, human IgG1, kappa)
heavy: B1 heavy with W439N
light: B1 light
notes: IgG1
B3: 2H7.v364 (antibody, human IgG1, kappa, name in EU numbering)
heavy: B1 heavy with W439A
light: B1 light
notes: IgG1; 2H7.v138 background with the N434 change
B4: 2H7.v478 (antibody, human IgG1, kappa, name in EU numbering)
heavy: B1 heavy with W439F
light: B1 light
notes: as for B3
B5: 2H7.v479 (antibody, human IgG1, kappa, name in EU numbering)
heavy: B1 heavy with W439Y
light: B1 light
notes: as for B3
B6: hu2H7.v511 (antibody, human IgG1, kappa, V domains shown)
VH: EVQLVESGGGLVQPGGSLRLSCAASGYTFTSYNMHWVRQAPGKGLEWVGAIYPGNGATSYNQKFKGRFTISVDKSKNTLYLQMNSLRAEDTAVYYCARVVYYSYRYWYFDVWGQGTLVTVSS
VL: DIQMTQSPSSLSASVGDRVTITCRASSSVSYLHWYQQKPGKAPKPLIYAPSNLASGVPSRFSGSGSGTDFTLTISSLQPEDFATYYCQQWAFNPPTFGQGTKVEIKR
notes: full-length IgG1

Tests used:
人FcRn [1] = target: T2, 人FcRn (human, UniProt P55899 24-297; P61769 21-119, limits assumed); assay: ELISA, biotinylated human FcRn on NeutrAvidin plate, pH 6.0
T2 construct: immobilised on a CM5 chip (BIAcore) or biotinylated and captured on NeutrAvidin (ELISA); also called huFcRn; human FcRn

人FcRn [2] = target: T2, 人FcRn; assay: ELISA, biotinylated human FcRn on NeutrAvidin plate, pH 7.4
CD20 on WIL2-S cells [3] = target: T1, CD20 on WIL2-S cells; assay: competitive Scatchard on WIL2-S cells, apparent Kd; competitor of 125I-2H7.v138
CD20 on WIL2-S cells [4] = target: T1, CD20 on WIL2-S cells; assay: competitive Scatchard on WIL2-S cells, apparent Kd; competitor of 125I-2H7.v511

T2 sequence (P55899 24-297 limits assumed, chain 1 of 2): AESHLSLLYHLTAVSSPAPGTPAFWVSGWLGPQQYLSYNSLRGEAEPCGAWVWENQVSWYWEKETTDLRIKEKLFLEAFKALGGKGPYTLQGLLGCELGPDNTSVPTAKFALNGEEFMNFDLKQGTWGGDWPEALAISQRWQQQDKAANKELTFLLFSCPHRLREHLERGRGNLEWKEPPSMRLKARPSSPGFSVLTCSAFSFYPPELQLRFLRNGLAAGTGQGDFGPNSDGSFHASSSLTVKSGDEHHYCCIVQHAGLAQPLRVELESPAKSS
T2 sequence (P61769 21-119 limits assumed, chain 2 of 2): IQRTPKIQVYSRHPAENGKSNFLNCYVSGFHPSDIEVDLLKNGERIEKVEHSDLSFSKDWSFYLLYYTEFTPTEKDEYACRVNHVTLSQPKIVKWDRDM

| Binder | binding result (人FcRn [1]) | binding result (人FcRn [2]) | other results |
| --- | --- | --- | --- |
| B1 | binds |  |  |
| B2 |  | binds |  |
| B3 |  | binds |  |
| B4 | binds |  |  |
| B5 |  | binds |  |
| B6 |  |  | Kd (CD20 on WIL2-S cells [3]): 0.11 nM; Kd (CD20 on WIL2-S cells [4]): 0.45 nM |
